Reference: US20240010722A1
Positions count from the first letter of the chain named. “And” between values parts separate entries of the source, which are not always exact repeats. Equal entries are not always repeated.

B1: MIAB198 (antibody, V domains shown)
VH: EVQLLESGGGLVQPGGSLRLSCAASGFTFSDFWMHWVRQAPGKGLEWISYISGDSGYTNYADSVKGRFTISRDNSKNTLYLQMNSLRAEDTAVYYCARDRPYYYIMDVWGKGTTVTVSS
VL: DIQMTQSPSSLSASVGDRVTITCRASQSVSRSLAWYQQKPGKAPKLLIYAASSLQSGVPSRFSGSGSGTDFTLTISSLQPEDFATYYCQQYKSYPVTFGQGTKVEIK
B2: MIAB130 (antibody, V domains shown)
VH: B1 VH with I105Q
VL: B1 VL
B3: MIAB128 (antibody, V domains shown)
VH: B1 VH with Y102N, I105Y
VL: B1 VL
B4: MIAB152 (antibody, V domains shown)
VH: B1 VH with I105Y
VL: B1 VL with R31S, S32Y
B5: MIAB156 (antibody, V domains shown)
VH: B1 VH with I105Y
VL: B1 VL with V29I, S32Y, A34N
B6: MIAB129 (antibody, V domains shown)
VH: B1 VH with Y102G, I105Y
VL: B1 VL
B7: MIAB154 (antibody, V domains shown)
VH: B1 VH with I105Y
VL: B1 VL with S32Y, A34N
B8: MIAB158 (antibody, V domains shown)
VH: B1 VH with I105Y
VL: B1 VL with R31S, S32Y, A34N
B9: MIAB150 (antibody, V domains shown)
VH: B1 VH with I105Y
VL: B1 VL with V29I, S32Y
B10: MIAB131 (antibody, V domains shown)
VH: B1 VH with I105G
VL: B1 VL
B11: MIAB160 (antibody, V domains shown)
VH: B1 VH with N59Q, I105Y
VL: B1 VL
B12: MIAB164 (antibody, V domains shown)
VH: B1 VH with I105Y
VL: B1 VL with A34T
B13: MIAB157 (antibody, V domains shown)
VH: B1 VH with I105Y
VL: B1 VL with V29I, R31S, S32Y
B14: MIAB163 (antibody, V domains shown)
VH: B1 VH with I105Y
VL: B1 VL with A34D
B15: MIAB165 (antibody, V domains shown)
VH: B1 VH with I105Y
VL: B1 VL with A34S
B16: MIAB162 (antibody, V domains shown)
VH: B1 VH with I105Y
VL: B1 VL with A34G
B17: MIAB168 (antibody, V domains shown)
VH: B1 VH with I105Y
VL: B1 VL with A34L
B18: MIAB134 (antibody, V domains shown)
VH: B1 VH with D31A, I105Y
VL: B1 VL
B19: MIAB155 (antibody, V domains shown)
VH: B1 VH with I105Y
VL: B1 VL with V29I, R31S, A34N
B20: MIAB166 (antibody, V domains shown)
VH: B1 VH with I105Y
VL: B1 VL with A34E
B21: MIAB172 (antibody, V domains shown)
VH: B1 VH with Y102T, I105Y
VL: B1 VL
B22: MIAB159 (antibody, V domains shown)
VH: B1 VH with D54E, I105Y
VL: B1 VL
B23: MIAB161 (antibody, V domains shown)
VH: B1 VH with N74Q, I105Y
VL: B1 VL
B24: MIAB167 (antibody, V domains shown)
VH: B1 VH with I105Y
VL: B1 VL with A34K

biological target: Insulin; assay: polyreactivity ELISA on insulin coat, 100 nM
Sequence (P01308 25-54, chain 1 of 2): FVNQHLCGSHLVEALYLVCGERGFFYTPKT
Sequence (P01308 90-110, chain 2 of 2): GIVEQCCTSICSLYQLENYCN

Binder | Insulin polyreactivity score
B1 | 3.19 and 3.63
B2 | 3.26
B3 | 2.62
B4 | 2.83
B5 | 45.2
B6 | 2.43
B7 | 61.9
B8 | 2.67
B9 | 3.74
B10 | 8
B11 | 17.8
B12 | 7.07
B13 | 3.99
B14 | 18.5
B15 | 9.53
B16 | 5.31
B17 | 8.35
B18 | 25.5
B19 | 1.99
B20 | 7.89
B21 | 3.79
B22 | 4.66
B23 | 5
B24 | 29.6
